This passage reports B cell surface IgG2a/b expression (MFI, flow cytometry) in wildtype mice after BAFF-R:Fc treatment and NF-κB2 transcription in spleen of wildtype mice, 2 days after i.p. BAFF-R:Fc (Affymetrix microarray) results from US20100330066A1.

The test has as its target murine BAFF (murine) (UniProt Q9WU72). The experiment in a line: cell-based or functional assay.
Chain of UniProt Q9WU72 (Q9WU72 127-309 limits assumed): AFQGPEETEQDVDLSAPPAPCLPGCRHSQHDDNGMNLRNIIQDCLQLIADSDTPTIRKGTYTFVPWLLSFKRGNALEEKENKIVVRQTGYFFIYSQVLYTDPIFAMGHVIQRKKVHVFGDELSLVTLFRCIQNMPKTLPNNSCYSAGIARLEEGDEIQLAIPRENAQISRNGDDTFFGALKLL

In turn, “BAFF-R:Fc (BAFF-R Fc fusion protein) (from UniProt Q96RJ3 2-71)” returned a B cell surface IgG2a/b expression (MFI, flow cytometry) in wildtype mice after BAFF-R:Fc treatment of 1.7 fold and an NF-κB2 transcription in spleen of wildtype mice, 2 days after i.p. BAFF-R:Fc (Affymetrix microarray) of 1.82 fold.
